Biological target: T1, purified human plasma kallikrein (active form), biotinylated (human, UniProt P03952 20-390; P03952 391-638, biotinylated with Sulfo-NHS-LC-Biotin (sites not given))
T1 construct: The protein was captured on avidin-coated plates through biotin; also called pKal; PKal
Experiment: complex ELISA: biotinylated kallikrein captured on avidin plate, incubated with plasma, bound C1-INH detected with polyclonal anti-C1-INH and alkaline phosphatase secondary antibody
Experimental: Immulon 2HB plates were coated with 5 μg/ml avidin in coating buffer (100 μl) overnight at 4° C. Plates were washed three times using PBS-Tween (200 μl/each). Subsequently, 200 μl 1% BSA in PBS was added to block the unused sites. The plates were incubated at 37° C. for 1 hr. Plates were washed three times using PBS-Tween (200 μl/each). Added to the plates were: 25 μl standards or samples, 25 μl biotinylated […] and/or biotinylated kallikrein (1 μg/ml), and 50 μl binding buffer. Plates were mixed and incubated at 37° C. for 1 hour. Plates were washed three times using PBS-Tween (200 μl/each). A polyclonal antibody to C1-INH was added and incubated at room temperature for 1 hour. Plates were washed three times using PBS-Tween (200 μl/each). Alkaline phosphatase conjugated secondary antibody was added and incubated at room temperature for 1 hour. […] The OD at 450 nm was read and calculations were performed using the standard curve.
One consideration in development of the assay was that it is beneficial to employ an assay that quantitates functional C1-INH based on an enzyme that is requisite for bradykinin formation. […] Nevertheless, complex ELISA assays detecting functional interaction between C1-INH and either Factor XIIa or kallikrein worked well since only that fraction of kallikrein (˜60%) that is inhibited by C1-INH is detected.

T1 sequence (P03952 20-390, chain 1 of 2): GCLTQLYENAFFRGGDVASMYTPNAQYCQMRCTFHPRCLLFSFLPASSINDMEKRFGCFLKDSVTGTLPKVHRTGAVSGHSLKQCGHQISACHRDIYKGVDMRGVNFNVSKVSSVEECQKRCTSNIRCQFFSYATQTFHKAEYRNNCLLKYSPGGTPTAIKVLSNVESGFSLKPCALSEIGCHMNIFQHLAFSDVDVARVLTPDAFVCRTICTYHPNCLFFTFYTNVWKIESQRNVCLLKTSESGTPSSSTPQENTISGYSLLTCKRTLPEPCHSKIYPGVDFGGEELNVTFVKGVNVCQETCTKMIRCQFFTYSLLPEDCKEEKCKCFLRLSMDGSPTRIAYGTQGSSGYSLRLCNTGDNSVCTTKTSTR
T1 sequence (P03952 391-638, chain 2 of 2): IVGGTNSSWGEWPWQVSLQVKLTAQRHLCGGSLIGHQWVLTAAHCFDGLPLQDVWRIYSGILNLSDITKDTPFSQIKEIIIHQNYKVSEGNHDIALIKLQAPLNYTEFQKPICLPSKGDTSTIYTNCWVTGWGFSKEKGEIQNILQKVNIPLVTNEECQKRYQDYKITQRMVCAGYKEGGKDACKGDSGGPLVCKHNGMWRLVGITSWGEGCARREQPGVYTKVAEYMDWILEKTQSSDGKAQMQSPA

binding result: binds
B1: plasma protease C1 inhibitor (C1-INH) in plasma of healthy (normal) controls (other)
chain: NPNATSSSSQDPESLQDRGEGKVATTVISKMLFVEPILEVSSLPTTNSTTNSATKITANTTDEPTTQPTTEPTTQPTIQPTQPTTQLPTDSPTQPTTGSFCPGPVTLCSDLESHSTEAVLGDALVDFSLKLYHAFSAMKKVETNMAFSPFSIASLLTQVLLGAGENTKTNLESILSYPKDFTCVHQALKGFTTKGVTSVSQIFHSPDLAIRDTFVNASRTLYSSSPRVLSNNSDANLELINTWVAKNTNNKISRLLDSLPSDTRLVLLNAIYLSAKWKTTFDPKKTRMEPFHFKNSVIKVPMMNSKKYPVAHFIDQTLKAKVGQLQLSHNLSLVILVPQNLKHRLEDMEQALSPSVFKAIMEKLEMSKFQPTLLTLPRIKVTTSQDMLSIMEKLEFFDFSYDLNLCGLTEDPDLQVSAMQHQTVLELTETGVEAAAASAISVARTLLVFEVQQPFLFVLWDQQHKFPVFMGRVYDPRA
notes: Native C1-INH as present in citrated plasma of healthy human controls (purified C1-INH in buffer was used for the standard curve); also called functional C1-INH

Reference: patent US20150362492A1 (DYAX, published 2015)
